# Test results taken from article PMC3260422.
# How the values were obtained:
# [1] = target: human CSF-1 receptor full-length ectodomain, domains D1-D5 (hCSF-1R_(D1-D5)) (human) (UniProt P07333); experiment: SAXS
# [2] = target: human Colony Stimulating Factor-1 (hCSF-1), residues 1-149 (human); experiment: field-flow fractionation
# [3] = target: human CSF-1 receptor full-length ectodomain, domains D1-D5 (hCSF-1R_(D1-D5)) (human) (UniProt P07333); experiment: field-flow fractionation
# Target sequence in this assay (P07333 20-517): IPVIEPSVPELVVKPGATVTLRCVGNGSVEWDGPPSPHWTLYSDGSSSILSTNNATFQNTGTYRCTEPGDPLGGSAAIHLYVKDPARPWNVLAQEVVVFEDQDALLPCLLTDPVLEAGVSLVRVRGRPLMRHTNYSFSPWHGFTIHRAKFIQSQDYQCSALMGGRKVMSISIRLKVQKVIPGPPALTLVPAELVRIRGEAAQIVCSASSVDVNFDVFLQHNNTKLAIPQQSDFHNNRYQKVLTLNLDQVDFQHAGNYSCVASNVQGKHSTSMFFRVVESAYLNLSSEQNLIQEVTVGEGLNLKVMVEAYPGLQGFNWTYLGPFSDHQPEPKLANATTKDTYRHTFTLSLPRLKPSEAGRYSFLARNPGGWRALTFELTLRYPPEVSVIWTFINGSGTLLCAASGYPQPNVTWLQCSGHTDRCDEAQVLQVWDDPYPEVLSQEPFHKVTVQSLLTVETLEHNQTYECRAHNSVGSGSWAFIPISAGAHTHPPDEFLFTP
# [4] = target: human CSF-1 receptor full-length ectodomain, domains D1-D5 (hCSF-1R_(D1-D5)) (human) (UniProt P07333); experiment: ITC
# Target sequence in this assay (P07333 20-517): as above
# [5] = target: mouse CSF-1 receptor full-length ectodomain, domains D1-D5 (mCSF-1R_(D1-D5)) (mouse) (UniProt P09581); experiment: ITC
# [6] = target: mouse CSF-1 receptor, first three extracellular domains (mCSF-1R_(D1-D3)) (mouse) (UniProt P09581); experiment: ITC
# Sequence of mouse CSF-1 receptor, first three extracellular domains (mCSF-1R_(D1-D3)) (mouse) (P09581 20-298): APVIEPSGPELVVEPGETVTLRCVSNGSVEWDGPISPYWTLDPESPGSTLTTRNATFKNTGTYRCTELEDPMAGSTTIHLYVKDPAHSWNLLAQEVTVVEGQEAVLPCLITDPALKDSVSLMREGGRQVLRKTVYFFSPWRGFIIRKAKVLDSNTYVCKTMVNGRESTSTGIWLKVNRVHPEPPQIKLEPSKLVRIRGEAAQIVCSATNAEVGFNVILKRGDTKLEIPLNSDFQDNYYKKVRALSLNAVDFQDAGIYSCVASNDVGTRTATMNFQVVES
# Sequence of mouse CSF-1 receptor full-length ectodomain, domains D1-D5 (mCSF-1R_(D1-D5)) (mouse) (P09581 20-515): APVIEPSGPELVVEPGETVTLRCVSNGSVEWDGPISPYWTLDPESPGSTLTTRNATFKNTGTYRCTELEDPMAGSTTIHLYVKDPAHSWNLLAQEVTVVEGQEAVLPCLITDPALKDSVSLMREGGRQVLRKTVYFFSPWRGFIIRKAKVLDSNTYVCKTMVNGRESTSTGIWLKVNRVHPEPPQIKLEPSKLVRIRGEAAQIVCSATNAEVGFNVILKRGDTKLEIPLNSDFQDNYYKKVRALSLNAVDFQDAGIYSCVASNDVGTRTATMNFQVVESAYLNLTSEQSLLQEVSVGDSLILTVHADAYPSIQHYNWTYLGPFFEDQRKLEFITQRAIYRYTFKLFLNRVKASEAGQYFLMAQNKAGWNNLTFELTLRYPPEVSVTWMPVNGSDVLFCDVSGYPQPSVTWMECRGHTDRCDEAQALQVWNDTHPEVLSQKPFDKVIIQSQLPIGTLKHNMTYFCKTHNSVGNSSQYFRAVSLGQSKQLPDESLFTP
stoichiometry N [1],stoichiometry N [2],stoichiometry N (CSF-1 dimer per receptor) [3],Kd [4],stoichiometry N (CSF-1 dimer per receptor) [4],Kd [5],stoichiometry N (CSF-1 dimer per receptor) [5],stoichiometry N (CSF-1 dimer per receptor) [6],Substance
2,–,–,–,–,–,–,–,"human CSF-1 receptor full-length ectodomain, domains D1-D5 (hCSF-1R_(D1-D5)) (from UniProt P07333 20-517)"
–,2,0.5,13.6 nM,0.5,66.2 nM,0.5,–,"human Colony Stimulating Factor-1 (hCSF-1), residues 1-149 (ligand)"
–,–,–,2800 nM,0.5,21.7 nM,0.5,0.5,"mouse Colony Stimulating Factor-1 (mCSF-1), residues 1-149 (ligand)"
